Source: article PMC10019796
pKd: −log10 of the molar value.

Biological target: mtDsbC-SARS-CoV-2 RBD wild type fusion protein (SARS-CoV-2) (UniProt P0DTC2)
Assay: BLI; biotinylated mtDsbC-RBD (20 µg/mL) immobilised on streptavidin (SA) biosensors, Fabs as analytes at three nanomolar concentrations; Octet RED384, 30 °C, 1000 rpm, 1 × PBS Kinetics Buffer; 1:1 interaction model, global fit

## REGN10987 (L93Q) Fab
  pKd: < 6.00
